The Human Domainome abundance scans (Beltran et al. 2025)

B1: CD2-associated protein, residues 109 to 169; numbered along this chain, Q9Y5K6 (parent)
chain: KKRQCKVLFEYIPQNEDELELKVGDIIDINEEVEEGWWSGTLNNKLGLFPSNFVKELEVTD

Variants of: B1
Test: abundance fitness (aPCA) (normalised: wild type 0, dead -1); higher = more abundant; growth selection in yeast, the domain comes from the species named
Details: Homo sapiens

Abundance fitness of substitutions, site by site:
D17: K -0.583 | G -0.092 | Y -0.192 | A -0.142 | R 0.076 | T -0.298 | L -0.13 | P -0.518 | S 0.289 | M 0.001 | F -0.249 | V 0.051 | Q -0.313 | H -0.343 | E 0.128
G24: Y -0.56 | P -0.838 | S -0.611 | F -0.57 | L -0.781 | A -0.783 | V -0.615 | I -0.226 | R -0.735 | D -0.252 | E -0.227 | W -0.764 | T -0.559
V7: T -0.9 | Q 0.1 | P -1.05 | L -0.542 | M -0.884 | G -1.24 | E -0.999 | C -0.293 | D -0.748 | S -0.399 | R -0.193 | A -0.03 | F -0.826
D25: L -0.856 | E -0.066 | Q -0.39 | K -0.106 | P -0.401 | T -0.495 | M -0.771 | C -0.649 | A -0.339 | R -0.484 | V -0.733 | G -0.835
E31: M -0.26 | N -0.016 | A -0.052 | F -0.584 | L -0.367 | G -0.187 | K 0.109 | D 0.002 | I -0.116 | P -0.855
N30: D -0.123 | V 0.101 | P -0.438 | C -0.256 | R -0.171 | S -0.11 | Q -0.043 | E 0.302 | M -0.151 | A -0.305
L8: V -0.035 | A -0.34 | H -0.401 | Q -0.437 | P -0.596 | N -0.417 | I 0.118 | G -0.133 | T -0.192 | S -0.082 | W -0.49 | D -0.267 | M 0.33 | K -0.304 | R -0.345 | Y -0.288 | E -0.088
L19: G -0.508 | K -0.727 | H -0.73 | S -0.826 | A -0.906 | W -1.18 | E -0.641 | M -0.319 | I -0.063 | R -0.68
E16: P -0.191 | I -0.552 | R 0.017 | D -0.203 | M 0.147 | G -0.303 | Q -0.007 | V -0.182 | S 0.053 | L -0.403 | K -0.434 | W -0.317
Y11: L -0.951 | H -0.286 | R 0.072 | P -0.481 | M -0.897 | V -0.715 | F -0.767 | D -0.446 | S -0.572 | A -0.539 | N -0.344 | T -0.458 | K -0.415 | G -0.855 | E -0.73 | W -0.318 | Q -0.936
E20: R -0.125 | M -0.229 | S -0.317 | W 0.012 | C 0.107 | K -0.002 | H -0.214 | G -0.369 | L -0.157 | T -0.409 | I -0.502 | A -0.015 | V -0.435
Q14: C -0.304 | S -0.325 | L -0.407 | H -0.509 | G -0.337 | T 0.079 | A -0.203 | R -0.183 | V -0.338 | W -0.788
I26: P -0.818 | R -0.813 | T -0.495 | V -0.262 | D -0.599 | A -0.912 | M -0.369 | C -0.722 | H -0.391 | K -0.624 | W -0.442 | E -0.484 | L -0.245 | Q -0.744 | S -0.623 | G -1.03
P13: M -0.812 | W -0.881 | G -0.547 | E -0.747 | K -0.233 | S -0.444 | L -0.903 | R 0.026
V23: T -0.144 | P -0.08 | L -0.369 | S -0.414 | R -0.092 | I -0.143 | Q -0.071 | K 0.117 | A -0.595 | M -0.34 | G -0.458 | F -0.687 | H -0.677
L21: Q -0.893 | S -0.719 | N -0.355 | I -0.4 | A -0.838 | G -0.348 | V -0.678 | R -0.861 | F -0.826 | M -0.319
I12: A -0.03 | W -0.311 | Q -0.267 | F -0.026 | D -0.303 | S -0.138 | P -0.159 | R -0.253 | E -0.122 | T 0.106 | Y 0.065 | V -0.218 | K -0.063
K22: L -0.952 | Q -0.406 | S -0.273 | W -0.448 | C -0.08 | G -0.182 | V -0.388 | R -0.244 | I -0.308 | P -0.612 | E -0.66 | H 0.219 | T 0.216
E10: M -0.579 | W -0.904 | S 0.081 | A -0.333 | Q -0.146 | G -0.153 | C -0.266 | L -0.841 | D 0.144 | N -0.064 | T -0.265 | K -0.215 | R -0.126
F9: G -0.294 | W -0.108 | S 0.004 | C -0.303 | L 0.283 | T 0.222 | I 0.131 | Q 0.083 | H 0.145 | M 0.244 | E 0.173 | P -0.449 | R 0.18 | D -0.097 | A 0.026
I27: A -0.608 | M -0.716 | S -0.641 | L -0.436 | T -0.902 | C -0.692 | Y -0.684 | Q -0.541 | K -1.03 | H -0.614 | W -0.913 | G -0.939 | E -0.951 | N -0.542 | P -0.61 | V 0.03
E18: T -0.838 | Y -0.582 | G -0.439 | P -0.986 | K -0.411 | D -0.738 | R -0.792 | A -0.783 | Q -0.395 | M -0.503 | L -0.684 | V -0.989 | S -0.808
N15: K -0.041 | W -0.483 | R 0.153 | L -0.468 | H -0.148 | G -0.19 | P -0.639 | I -0.851 | A 0.041 | T -0.097 | Q -0.26 | S -0.04 | Y -0.558 | F -0.448 | E -0.275 | M -0.614 | C -0.3
K6: Y 0.219 | S -0.084 | W -0.119 | V 0.278
I29: K -0.63 | S -0.737 | H -0.482 | C -0.57 | F -0.274 | P -0.625 | A -0.833 | M 0.038 | E -0.78 | R -0.678 | W -0.693 | V 0.085 | Y -0.886 | N -0.431 | Q -0.823 | G -0.31 | L -0.219 | T -0.543
D28: S -0.368 | C -0.264 | H -0.136 | F -0.335 | G -0.581 | W -0.268 | A -0.536 | Y -0.271 | R -0.515 | V -0.314 | L -0.4 | T -0.209 | E 0.131
